Data from paper PMC6965139, “Crystal structures of fukutin-related protein (FKRP), a ribitol-phosphate transferase related to muscular dystrophy” (Nature Communications, 2020).
Positions count from the first letter of the chain named.

Tests used:
[1] = target: T1, sFKRP (secreted type, His/Myc, WT) (Homo sapiens, UniProt Q9H9S5); assay: ribitol-phosphate transfer, HPLC and MALDI-TOF MS; type: biochemical; conditions: 200 uM CDP-Rbo, 40 uM RboP-(phospho-)core M3 peptide, 10 mM MnCl2 and MgCl2, pH 6.5, 310 K; enzyme on anti-Myc agarose
T1 construct: gene FKRP; Asn33 to C-terminus in ss1-His/Myc-pcDNA3.1; secreted from HEK293T; immunoprecipitated on anti-c-Myc agarose; tags kept
T1 sequence (Q9H9S5 33-495): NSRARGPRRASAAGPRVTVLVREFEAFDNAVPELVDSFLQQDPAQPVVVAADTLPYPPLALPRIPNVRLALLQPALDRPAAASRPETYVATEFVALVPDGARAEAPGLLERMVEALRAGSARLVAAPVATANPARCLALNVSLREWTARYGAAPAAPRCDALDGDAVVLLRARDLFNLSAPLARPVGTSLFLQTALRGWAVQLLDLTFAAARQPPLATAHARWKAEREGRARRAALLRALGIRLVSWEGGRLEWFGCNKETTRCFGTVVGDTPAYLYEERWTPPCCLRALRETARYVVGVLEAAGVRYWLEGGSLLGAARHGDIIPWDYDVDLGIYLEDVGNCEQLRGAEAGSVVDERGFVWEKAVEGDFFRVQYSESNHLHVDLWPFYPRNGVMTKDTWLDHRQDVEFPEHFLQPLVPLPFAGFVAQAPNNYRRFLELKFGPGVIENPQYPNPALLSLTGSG

[2] = target: secreted type of FKRP Tyr88Phe mutant (Asn33 to the C-terminus, His/Myc) (human) (UniProt Q9H9S5)
[3] = target: secreted type of FKRP Ser221Arg mutant (Asn33 to the C-terminus, His/Myc) (human) (UniProt Q9H9S5)
[4] = target: secreted type of FKRP Leu276Ile mutant (Asn33 to the C-terminus, His/Myc) (human) (UniProt Q9H9S5)
[5] = target: the molecule itself; assay: crystal structure; sFKRP without substrates, Mg2+ and Ba2+ bound forms; four subunits in the asymmetrical unit; hanging-drop vapor diffusion at 293 K, PEG 4000, HEPES-NaOH pH 7.5; interfaces judged with ePISA

Molecule: Nc1ccn([C@@H]2O[C@H](COP(=O)(O)OP(=O)(O)OC[C@@H](O)[C@@H](O)[C@@H](O)CO)[C@@H](O)[C@H]2O)c(=O)n1 [CDP-Rbo]
- ribitol-phosphate transfer, HPLC and MALDI-TOF MS [1]: Enzymatic activity of sFKRP with CDP-Rbo and the RboP-(phospho-)core M3 peptide

B1: secreted type of FKRP Tyr88Phe mutant (Asn33 to the C-terminus, His/Myc) (enzyme)
chain: T1 sequence (Q9H9S5 33-495) with Y56F
- glycosyltransferase activity with CDP-Rbo and the RboP-(phospho-)core M3 peptide, relative to the wild-type enzyme (% of the wild-type enzyme) [2]: 20

B2: secreted type of FKRP Ser221Arg mutant (Asn33 to the C-terminus, His/Myc) (enzyme)
chain: T1 sequence (Q9H9S5 33-495) with S189R
- glycosyltransferase activity with CDP-Rbo and the RboP-(phospho-)core M3 peptide, relative to the wild-type enzyme (% of the wild-type enzyme) [3]: 5

B3: secreted type of FKRP Leu276Ile mutant (Asn33 to the C-terminus, His/Myc) (enzyme)
chain: T1 sequence (Q9H9S5 33-495) with L244I
- glycosyltransferase activity with CDP-Rbo and the RboP-(phospho-)core M3 peptide, relative to the wild-type enzyme (% of the wild-type enzyme) [4]: 50

B4: soluble form of fukutin-related protein (sFKRP, residues 45 to C-terminus) (enzyme, human, UniProt Q9H9S5 45-495, looked up)
chain: AGPRVTVLVREFEAFDNAVPELVDSFLQQDPAQPVVVAADTLPYPPLALPRIPNVRLALLQPALDRPAAASRPETYVATEFVALVPDGARAEAPGLLERMVEALRAGSARLVAAPVATANPARCLALNVSLREWTARYGAAPAAPRCDALDGDAVVLLRARDLFNLSAPLARPVGTSLFLQTALRGWAVQLLDLTFAAARQPPLATAHARWKAEREGRARRAALLRALGIRLVSWEGGRLEWFGCNKETTRCFGTVVGDTPAYLYEERWTPPCCLRALRETARYVVGVLEAAGVRYWLEGGSLLGAARHGDIIPWDYDVDLGIYLEDVGNCEQLRGAEAGSVVDERGFVWEKAVEGDFFRVQYSESNHLHVDLWPFYPRNGVMTKDTWLDHRQDVEFPEHFLQPLVPLPFAGFVAQAPNNYRRFLELKFGPGVIENPQYPNPALLSLTGSG
notes: fukutin-related protein (FKRP), human, residues 45 to C-terminus, 451 amino acid residues in total; stem domain 45-287, catalytic domain 288-495; Sugar chains were removed by Endo H glycosidase before the last gel filtration; also called lumenal region of human FKRP; not shown: protein A, N-terminal, cleaved
- stoichiometry N [5]: 4
